This is an account of results in PMC2720809 (Nature, 2009).

The target of assay [1] is T1, zebrafish P2X4.1 receptor (zfP2X4) (Danio rerio, UniProt F8W463).
T1 sequence (F8W463 1-389): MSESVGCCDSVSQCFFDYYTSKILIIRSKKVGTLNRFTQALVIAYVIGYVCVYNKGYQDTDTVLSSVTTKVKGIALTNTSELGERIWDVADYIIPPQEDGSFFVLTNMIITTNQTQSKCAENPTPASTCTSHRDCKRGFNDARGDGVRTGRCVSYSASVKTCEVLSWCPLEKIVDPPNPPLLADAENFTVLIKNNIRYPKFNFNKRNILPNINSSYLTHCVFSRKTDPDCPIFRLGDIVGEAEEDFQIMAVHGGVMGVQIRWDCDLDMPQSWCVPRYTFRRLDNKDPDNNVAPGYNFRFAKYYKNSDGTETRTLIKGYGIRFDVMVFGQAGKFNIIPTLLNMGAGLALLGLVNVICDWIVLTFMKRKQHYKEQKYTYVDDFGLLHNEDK
The assay can be described thus: whole-cell patch clamp of transfected tsA201 cells. The class given is cell-based.

Assay [2] deals with ΔzfP2X4-A (zebrafish P2X4.1 receptor with amino- and carboxyl-terminal deletions) (zebrafish) (UniProt F8W463). The assay can be described thus: crystal structure.
For assay [3], the target named is ΔzfP2X4-B (ΔzfP2X4-A with C51F/N78K/N187R) (zebrafish) (UniProt F8W463). The assay can be described thus: crystal structure.

For the compound `Nc1ncnc2c1ncn2[C@@H]1O[C@H](COP(=O)(O)OP(=O)(O)OP(=O)(O)O)[C@@H](O)[C@H]1O` [ATP], in assay [1], the half-maximal effective concentration (EC50) (as a rule, the concentration giving half of the maximal effect) was ~800 µM. In the case of “ΔzfP2X4-A (zebrafish P2X4.1 receptor with amino- and carboxyl-terminal deletions) (from UniProt F8W463 1-389)”, the stoichiometry N (commonly a count of units in the complex or per binding partner) in assay [2] was found to be 3. For “ΔzfP2X4-B (ΔzfP2X4-A with C51F/N78K/N187R) (from UniProt F8W463 1-389) (receptor)”, in assay [3], the stoichiometry N came out at 3.
